Columns and labels:
Assay type in all cases: biochemical, Arthrobacter globiformis M30
[1] = molecular target: ketose 3-epimerase (D-PE) (Arthrobacter globiformis, UniProt A0A1L7NQ96)
[2] = substrate: O=C(CO)[C@@H](O)[C@H](O)[C@H](O)CO; experiment: Km and Vmax of the present enzyme; settings: other: 30° C., in the presence of Mg2+ ions
Protocol: (§1) The enzyme reaction was performed at 30° C. for 30 min, and the amount of the enzyme that produced 1 micromole of D-fructose in 1 min under these conditions was taken as one unit. After the reaction, the reaction mixture was put in a boiling liquid for 3 min to quench the reaction. After deionization, the product D-fructose was measured by HPLC analysis. Protein measurement was performed by using the Bradford method, using 5 μL of the enzyme liquid added to a Bradford solution (250 μl) and evenly stirred therein.
(§2) The Km and Vmax of the present enzyme for D-psicose and D-fructose were measured. The measurement was made by measuring enzyme activity at 30° C. in the presence of Mg^2+ ions.

[3] = substrate: O=C(CO)[C@H](O)[C@H](O)[C@H](O)CO; experiment: Km and Vmax of the present enzyme; settings: other: 30° C., in the presence of Mg2+ ions
Protocol: as §1, §2

[Co+2] [Co^2+, divalent cobalt ions]
Effect of metal ion on enzyme activity [1]: activatable

[Mn+2] [Mn^2+, divalent manganese ions]
Effect of metal ion on enzyme activity [1]: activatable

B1: ketose 3-epimerase, purified enzyme (Arthrobacter globiformis) (protein)
chain: MKIGCHGLVWTGHFDAEGIRYSVQKTREAGFDLVEFPLMDPFSFDVQTAKSALAEHGLAASASLGLSDATDVSSEDPAVVKAGEELLNRAVDVLAELGATDFCGVIYSAMKKYMEPATAAGLANSKAAVGRVADRASDLGINVSLEVVNRYETNVLNTGRQALAYLEELNRPNLGIHLDTYHMNIEESDMFSPILDTAEALRYVHIGESHRGYLGTGSVDFDTFFKALGRIGYDGPVVFESFSSSVVAPDLSRMLGIWRNLWADNEELGAHANAFIRDKLTAIKTIELH
notes: disrupted with a high-pressure homogenizer to extract the enzyme; made in house; host or cells: Arthrobacter globiformis M30 (native producer); Purified by PEG fractionation, Q-Sepharose ion exchange and RESOURCE PHE hydrophobic chromatography
Km [2]: 31.5 mM | Vmax [2]: 68.5 U/mg | Km [3]: 30.1 mM | Vmax [3]: 168 U/mg
